Patent publication US4732933A, “Neocarzinostatin complexes, a method for producing the same, and an antitumor agent containing said complexes as an active component” (Kayaku Antibiotics Research Co., Ltd., priority 1982, dated 1988)

Columns and labels:
[1] = test system: normal fibroblasts of rabit; experiment: Cell toxicity to normal fibroblasts; type: cell-based; parameters: key to Cell toxicity to normal fibroblasts: +: Intensity of toxicity; -: No toxicity; settings: for Cell toxicity to normal fibroblasts: judgement after 3 days
Source text: Comparison of cell toxicity
to normal fibroblasts of rabit*
*Judgement after 3 days

[2] = Solubility of SMANX in various solvents compared with NCS and starting copolymer (Table 1); type: physicochemical; settings: concentration: 1 mg/ml
Description: |(concentration: 1 mg/ml)

cancer VX-2 of liver = experiment: Tumor affinity in cancer VX-2 of liver after intravenous injection; type: in vivo, rabit
Source text: Tumor affinity in cancer VX-2 of liver of
rabit after intravenous injection of SMANX

Molecule | Cell toxicity to normal fibroblasts ([1]; 0.1 μg/ml) | Solubility in 10 mM aqueous solution of sodium bicarbonate [2] | Solubility in Acetone [2] | Solubility in Dioxane [2] | Solubility in Lipiodol [2] | Solubility in Methanol [2] | Solubility in Pyridine [2] | Solubility in Water pH 5.0 ([2]; pH 5.0) | Solubility in Water pH 8.0 ([2]; pH 8.0) | Tumor affinity, distant site (normal liver) (cancer VX-2 of liver; 10 mg/kg, 90') | Tumor affinity, interior of tumor (cancer VX-2 of liver; 10 mg/kg, 90') | Tumor affinity, distant site (normal liver) (cancer VX-2 of liver; 15') | Tumor affinity, interior of tumor (cancer VX-2 of liver; 15') | Tumor affinity, distant site (normal liver) (cancer VX-2 of liver; 60') | Tumor affinity, interior of tumor (cancer VX-2 of liver; 60') | Cell toxicity to normal fibroblasts ([1]; 1.0 μg/ml) | LD50 ([1]; footnote to Table 8 (Cf.)) [µg/mL]
CO[C@@]12[C@H](COC(N)=O)C3=C(C(=O)C(C)=C(N)C3=O)N1C[C@@H]1N[C@@H]12 [Mitomycin C, reference compound] | + |  |  |  |  |  |  |  |  |  |  |  |  |  |  |  | 
neocarzinostatin [NCS] | - | soluble | insoluble | insoluble | insoluble | insoluble | insoluble | soluble | soluble | 0 | 0 | 0 | 0 | 0 | 0 | + | 1.0
